Target: T1, activated insulin receptor (pYpY1162/1163-IR) of mouse MS-1 endothelial cells, P15208
T1 chain: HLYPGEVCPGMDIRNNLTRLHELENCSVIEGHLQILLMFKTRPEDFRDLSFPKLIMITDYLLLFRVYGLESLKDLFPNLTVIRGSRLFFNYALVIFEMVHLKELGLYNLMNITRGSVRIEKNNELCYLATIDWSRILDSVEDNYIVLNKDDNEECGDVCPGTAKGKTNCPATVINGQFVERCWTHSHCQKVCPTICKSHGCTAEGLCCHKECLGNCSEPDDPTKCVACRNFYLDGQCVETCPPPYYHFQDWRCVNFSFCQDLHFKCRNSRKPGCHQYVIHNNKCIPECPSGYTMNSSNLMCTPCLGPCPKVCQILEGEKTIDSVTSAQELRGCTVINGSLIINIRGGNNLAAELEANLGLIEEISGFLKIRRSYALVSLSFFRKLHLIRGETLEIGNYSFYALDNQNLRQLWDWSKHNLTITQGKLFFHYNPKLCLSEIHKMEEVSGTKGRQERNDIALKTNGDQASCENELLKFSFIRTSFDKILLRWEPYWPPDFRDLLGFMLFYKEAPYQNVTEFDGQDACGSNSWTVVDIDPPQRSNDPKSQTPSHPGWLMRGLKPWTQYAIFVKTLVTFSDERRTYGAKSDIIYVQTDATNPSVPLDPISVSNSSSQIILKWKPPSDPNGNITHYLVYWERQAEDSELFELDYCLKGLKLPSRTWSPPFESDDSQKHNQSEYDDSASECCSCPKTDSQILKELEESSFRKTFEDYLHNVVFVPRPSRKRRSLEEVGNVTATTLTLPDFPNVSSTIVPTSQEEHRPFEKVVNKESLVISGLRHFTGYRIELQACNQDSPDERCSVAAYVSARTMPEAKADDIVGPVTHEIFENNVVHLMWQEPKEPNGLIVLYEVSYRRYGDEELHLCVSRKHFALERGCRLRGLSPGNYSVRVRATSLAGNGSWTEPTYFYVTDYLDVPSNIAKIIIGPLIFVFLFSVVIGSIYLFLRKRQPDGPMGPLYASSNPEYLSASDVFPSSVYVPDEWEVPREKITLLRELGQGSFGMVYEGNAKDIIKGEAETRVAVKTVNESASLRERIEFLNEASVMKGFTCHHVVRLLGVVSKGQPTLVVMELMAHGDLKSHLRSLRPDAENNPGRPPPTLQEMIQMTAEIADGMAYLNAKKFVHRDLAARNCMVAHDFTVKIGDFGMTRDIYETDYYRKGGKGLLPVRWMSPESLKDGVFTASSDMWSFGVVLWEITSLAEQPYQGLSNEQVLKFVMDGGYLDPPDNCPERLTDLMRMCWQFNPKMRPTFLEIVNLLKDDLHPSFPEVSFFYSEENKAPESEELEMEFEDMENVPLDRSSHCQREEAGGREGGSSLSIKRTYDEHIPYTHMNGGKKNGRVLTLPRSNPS

B1: HA-tagged C215S mutant form of full-length PTP1B (protein)
chain: MEMEKEFEQIDKSGSWAAIYQDIRHEASDFPCRVAKLPKNKNRNRYRDVSPFDHSRIKLHQEDNDYINASLIKMEEAQRSYILTQGPLPNTCGHFWEMVWEQKSRGVVMLNRVMEKGSLKCAQYWPQKEEKEMIFEDTNLKLTLISEDIKSYYTVRQLELENLTTQETREILHFHYTTWPDFGVPESPASFLNFLFKVRESGSLSPEHGPVVVHSSAGIGRSGTFCLADTCLLLMDKRKDPSSVDIKKVLLEMRKFRMGLIQTADQLRFSYLAVIEGAKFIMGDSSVQDQWKELSHEDLEPPPEHIPPPPRPPKRILEPHNGKCREFFPNHQWVKEETQEDKDCPIKEEKGSPLNAAPYGIESMSQDTEVRSRVVGGSLRGAQAASPAKGEPSLPEKDEDHALSYWKPFLVNMCVATVLTAGAYLCYRFLFNSNT
IR pYpY1162/1163 phosphorylation (immunoblot, ratio of phosphorylated InRβ to total InRβ): such eNOS ablation-caused defect of insulin signaling was significantly restored by ectopic expression of PTP1B-C215S
